Consider one substance from US20230302100A1.

The target in one test is adalimumab (Humira). Nature of the test: cell-based or functional assay.
The target in the next test is denosumab (XGEVA). Nature of the test: cell-based or functional assay.

“pCART144 (IdeZ with N terminal methionine and histidine tag) (enzyme)”: the IgG1 (adalimumab) cleavage, SDS-PAGE titration: enzyme concentration of equal cleavage with adalimumab (Humira) was determined as 4.6 ng/mL. In addition, in the test with denosumab (XGEVA), the IgG2 (denosumab) cleavage, SDS-PAGE titration: enzyme concentration giving a dominating F(ab')2 band turned out to be 3.3 µg/mL and the IgG2 (denosumab) cleavage, SDS-PAGE titration: enzyme concentration giving a single intense scIgG band was found to be 0.12 µg/mL.
